Laboratory results: patent US20120264685A1 (priority 2009, published 2012)
Values belong to the binder of their own block, whether it stands above or below them. Where no end group is shown, it is not given here. [ ]: non-standard residue; d: D form. Bip(2'-Et-4'-OMe) = CCc1cc(OC)ccc1-c1ccc(C[C@H](N)C(=O)O)cc1; αMePhe(2,6-F2) = C[C@](N)(Cc1c(F)cccc1F)C(=O)O; αMePhe(2-F) = C[C@](N)(Cc1ccccc1F)C(=O)O; αMeBip(OMe) = alpha-methylated Bip(OMe); hhPhe = N[C@@H](CCCc1ccccc1)C(=O)O; αMeD = C[C@](N)(CC(=O)O)C(=O)O; αMeP = C[C@@]1(C(=O)O)CCCN1; αMeAPPA = not defined here; αMeS = C[C@](N)(CO)C(=O)O; Aib = CC(C)(N)C(=O)O

Target: human glucagon receptor (human, UniProt P47871 26-477)
Test: cell-based or functional assay

human glucagon receptor, sequence (P47871 26-477): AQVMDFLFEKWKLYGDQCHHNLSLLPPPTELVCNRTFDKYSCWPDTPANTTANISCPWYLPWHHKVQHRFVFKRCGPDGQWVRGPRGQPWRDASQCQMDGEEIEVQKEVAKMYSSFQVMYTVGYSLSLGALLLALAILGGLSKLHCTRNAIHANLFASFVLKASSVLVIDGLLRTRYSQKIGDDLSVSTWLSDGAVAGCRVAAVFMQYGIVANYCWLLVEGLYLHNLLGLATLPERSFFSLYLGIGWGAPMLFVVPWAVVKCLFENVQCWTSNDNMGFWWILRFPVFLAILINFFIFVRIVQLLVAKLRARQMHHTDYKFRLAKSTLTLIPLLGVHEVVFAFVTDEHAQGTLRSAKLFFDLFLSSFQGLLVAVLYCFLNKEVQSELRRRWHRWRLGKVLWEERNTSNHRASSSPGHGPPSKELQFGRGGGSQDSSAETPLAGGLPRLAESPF

cAMP production (pmol/ml/µg prt) with saturated glucagon peptide, at 1 nM: 0 pmol/ml/µg prt
cAMP production (pmol/ml/µg prt) with saturated glucagon peptide, at 10 nM: 0 pmol/ml/µg prt
cAMP production (pmol/ml/µg prt) with saturated glucagon peptide, at 100 nM: 0 pmol/ml/µg prt
cAMP production (pmol/ml/µg prt) with saturated glucagon peptide, at 1 µM: 0 pmol/ml/µg prt
cAMP production (pmol/ml/µg prt) with saturated glucagon peptide, at 10 µM: 0 pmol/ml/µg prt
Binder: VVHSEGTFTSD[αMeBip(OMe)][hhPhe] (not fully specified (C-terminus); printed as VVHSEGTFTSD-(αMe-Bip(OMe))-(APPA)) [Seq. ID. No. 209]

cAMP production (pmol/ml/µg prt) with saturated glucagon peptide, at 1 nM: 14 pmol/ml/µg prt
cAMP production (pmol/ml/µg prt) with saturated glucagon peptide, at 10 nM: 11 pmol/ml/µg prt
cAMP production (pmol/ml/µg prt) with saturated glucagon peptide, at 100 nM: 7 pmol/ml/µg prt
cAMP production (pmol/ml/µg prt) with saturated glucagon peptide, at 1 µM: 3 pmol/ml/µg prt
cAMP production (pmol/ml/µg prt) with saturated glucagon peptide, at 10 µM: 0 pmol/ml/µg prt
Binder: VH[Aib]QGT[αMePhe(2,6-F2)]TS[αMeD][αMeBip(OMe)][αMeAPPA] (not fully specified (C-terminus); reading uncertain) [Seq. ID. No. 199]

cAMP production (pmol/ml/µg prt) with saturated glucagon peptide, at 1 nM: 4 pmol/ml/µg prt
cAMP production (pmol/ml/µg prt) with saturated glucagon peptide, at 10 nM: 2 pmol/ml/µg prt
cAMP production (pmol/ml/µg prt) with saturated glucagon peptide, at 100 nM: 0 pmol/ml/µg prt
cAMP production (pmol/ml/µg prt) with saturated glucagon peptide, at 1 µM: 0 pmol/ml/µg prt
cAMP production (pmol/ml/µg prt) with saturated glucagon peptide, at 10 µM: 0 pmol/ml/µg prt
B2: Seq. ID. No. 189 (peptide)
peptide: VHSQGT[αMePhe(2-F)]TS[αMeD][αMeBip(OMe)][αMeAPPA]
modifications: not fully specified (C-terminus); printed as VHSQGT-(αMe-2FPhe)-TS-(αMe-Asp)-(αMe-Bip(OMe))-(αMe-APPA); reading uncertain

cAMP production (pmol/ml/µg prt) with saturated glucagon peptide, at 1 nM: 15 pmol/ml/µg prt
cAMP production (pmol/ml/µg prt) with saturated glucagon peptide, at 10 nM: 12 pmol/ml/µg prt
cAMP production (pmol/ml/µg prt) with saturated glucagon peptide, at 100 nM: 8 pmol/ml/µg prt
cAMP production (pmol/ml/µg prt) with saturated glucagon peptide, at 1 µM: 4 pmol/ml/µg prt
cAMP production (pmol/ml/µg prt) with saturated glucagon peptide, at 10 µM: 2 pmol/ml/µg prt
B3: Seq. ID. No. 163 (peptide)
peptide: VH[Aib]EGTFT[αMeS]D[αMeBip(OMe)][αMeAPPA]
modifications: not fully specified (C-terminus); printed as VH-Aib-EGTFT-(αMe-Ser)-D-(αMe-Bip(OMe))-(αMe-APPA); reading uncertain

cAMP production (pmol/ml/µg prt) with saturated glucagon peptide, at 1 nM: 2 pmol/ml/µg prt
cAMP production (pmol/ml/µg prt) with saturated glucagon peptide, at 10 nM: 0 pmol/ml/µg prt
cAMP production (pmol/ml/µg prt) with saturated glucagon peptide, at 100 nM: 0 pmol/ml/µg prt
cAMP production (pmol/ml/µg prt) with saturated glucagon peptide, at 1 µM: 0 pmol/ml/µg prt
cAMP production (pmol/ml/µg prt) with saturated glucagon peptide, at 10 µM: 0 pmol/ml/µg prt
Binder: VHAEGT[αMePhe(2-F)]TS[αMeD][αMeBip(OMe)][hhPhe]-NH2 [Seq. ID. No. 70]

Continued, binder first:

B1: Seq. ID. No. 169 (peptide)
peptide: VHSEGT[αMePhe(2-F)]T[αMeS]D[αMeBip(OMe)][αMeAPPA]
modifications: not fully specified (C-terminus); printed as VHSEGT-(αMe-2FPhe)-T-(αMe-Ser)-D-(αMe-Bip(OMe))-(αMe-APPA); reading uncertain
cAMP production (pmol/ml/µg prt) with saturated glucagon peptide, at 1 nM: 5 pmol/ml/µg prt
cAMP production (pmol/ml/µg prt) with saturated glucagon peptide, at 10 nM: 2 pmol/ml/µg prt
cAMP production (pmol/ml/µg prt) with saturated glucagon peptide, at 100 nM: 0 pmol/ml/µg prt
cAMP production (pmol/ml/µg prt) with saturated glucagon peptide, at 1 µM: 0 pmol/ml/µg prt
cAMP production (pmol/ml/µg prt) with saturated glucagon peptide, at 10 µM: 0 pmol/ml/µg prt

Binder: VH[αMeP]EGT[αMePhe(2,6-F2)]TS[αMeD][αMeBip(OMe)][hhPhe] (not fully specified (C-terminus)) [Seq. ID. No. 80]
cAMP production (pmol/ml/µg prt) with saturated glucagon peptide, at 1 nM: 0 pmol/ml/µg prt
cAMP production (pmol/ml/µg prt) with saturated glucagon peptide, at 10 nM: 0 pmol/ml/µg prt
cAMP production (pmol/ml/µg prt) with saturated glucagon peptide, at 100 nM: 0 pmol/ml/µg prt
cAMP production (pmol/ml/µg prt) with saturated glucagon peptide, at 1 µM: 0 pmol/ml/µg prt
cAMP production (pmol/ml/µg prt) with saturated glucagon peptide, at 10 µM: 0 pmol/ml/µg prt

Binder: VH[Aib]QGT[αMePhe(2-F)]T[αMeS]D[αMeBip(OMe)][αMeAPPA] (not fully specified (C-terminus); reading uncertain) [Seq. ID. No. 167]
cAMP production (pmol/ml/µg prt) with saturated glucagon peptide, at 1 nM: 9 pmol/ml/µg prt
cAMP production (pmol/ml/µg prt) with saturated glucagon peptide, at 10 nM: 6 pmol/ml/µg prt
cAMP production (pmol/ml/µg prt) with saturated glucagon peptide, at 100 nM: 5 pmol/ml/µg prt
cAMP production (pmol/ml/µg prt) with saturated glucagon peptide, at 1 µM: 3 pmol/ml/µg prt
cAMP production (pmol/ml/µg prt) with saturated glucagon peptide, at 10 µM: 0 pmol/ml/µg prt

B4: Seq. ID. No. 113 (peptide)
peptide: VH[Aib]EGTFT[αMeS][αMeD][Bip(2'-Et-4'-OMe)][αMeAPPA]
modifications: not fully specified (C-terminus); printed as VH-Aib-EGTFT-(αMe-Ser)-(αMe-Asp)-Bip(OMe)-(αMe-APPA); reading uncertain
cAMP production (pmol/ml/µg prt) with saturated glucagon peptide, at 1 nM: 4 pmol/ml/µg prt
cAMP production (pmol/ml/µg prt) with saturated glucagon peptide, at 10 nM: 2 pmol/ml/µg prt
cAMP production (pmol/ml/µg prt) with saturated glucagon peptide, at 100 nM: 0 pmol/ml/µg prt
cAMP production (pmol/ml/µg prt) with saturated glucagon peptide, at 1 µM: 0 pmol/ml/µg prt
cAMP production (pmol/ml/µg prt) with saturated glucagon peptide, at 10 µM: 0 pmol/ml/µg prt

B5: Seq. ID. No. 208 (peptide)
peptide: VVH[αMeP]QGTFTSD[αMeBip(OMe)][hhPhe]
modifications: not fully specified (C-terminus); printed as VVH-(αMe-Pro)-QGTFTSD-(αMe-Bip(OMe))-(APPA)
cAMP production (pmol/ml/µg prt) with saturated glucagon peptide, at 1 nM: 4 pmol/ml/µg prt
cAMP production (pmol/ml/µg prt) with saturated glucagon peptide, at 10 nM: 2 pmol/ml/µg prt
cAMP production (pmol/ml/µg prt) with saturated glucagon peptide, at 100 nM: 0 pmol/ml/µg prt
cAMP production (pmol/ml/µg prt) with saturated glucagon peptide, at 1 µM: 0 pmol/ml/µg prt
cAMP production (pmol/ml/µg prt) with saturated glucagon peptide, at 10 µM: 0 pmol/ml/µg prt

Binder: VH[αMeP]EGT[αMePhe(2,6-F2)]TS[αMeD][αMeBip(OMe)][αMeAPPA] (not fully specified (C-terminus); reading uncertain) [Seq. ID. No. 204]
cAMP production (pmol/ml/µg prt) with saturated glucagon peptide, at 1 nM: 9 pmol/ml/µg prt
cAMP production (pmol/ml/µg prt) with saturated glucagon peptide, at 10 nM: 6 pmol/ml/µg prt
cAMP production (pmol/ml/µg prt) with saturated glucagon peptide, at 100 nM: 5 pmol/ml/µg prt
cAMP production (pmol/ml/µg prt) with saturated glucagon peptide, at 1 µM: 3 pmol/ml/µg prt
cAMP production (pmol/ml/µg prt) with saturated glucagon peptide, at 10 µM: 0 pmol/ml/µg prt

Binder: VH[αMeP]QGT[αMePhe(2,6-F2)]TS[αMeD][αMeBip(OMe)][αMeAPPA] (not fully specified (C-terminus); reading uncertain) [Seq. ID. No. 200]
cAMP production (pmol/ml/µg prt) with saturated glucagon peptide, at 1 nM: 10 pmol/ml/µg prt
cAMP production (pmol/ml/µg prt) with saturated glucagon peptide, at 10 nM: 8 pmol/ml/µg prt
cAMP production (pmol/ml/µg prt) with saturated glucagon peptide, at 100 nM: 6 pmol/ml/µg prt
cAMP production (pmol/ml/µg prt) with saturated glucagon peptide, at 1 µM: 4 pmol/ml/µg prt
cAMP production (pmol/ml/µg prt) with saturated glucagon peptide, at 10 µM: 1 pmol/ml/µg prt

B6: Seq. ID. No. 87 (peptide)
peptide: VHSEGTFTSD[Bip(2'-Et-4'-OMe)][αMeAPPA]
modifications: not fully specified (C-terminus); printed as VHSEGTFTSD-Bip(OMe)-(αMe-APPA); reading uncertain
cAMP production (pmol/ml/µg prt) with saturated glucagon peptide, at 1 nM: 5 pmol/ml/µg prt
cAMP production (pmol/ml/µg prt) with saturated glucagon peptide, at 10 nM: 3 pmol/ml/µg prt
cAMP production (pmol/ml/µg prt) with saturated glucagon peptide, at 100 nM: 1 pmol/ml/µg prt
cAMP production (pmol/ml/µg prt) with saturated glucagon peptide, at 1 µM: 0 pmol/ml/µg prt
cAMP production (pmol/ml/µg prt) with saturated glucagon peptide, at 10 µM: 0 pmol/ml/µg prt
